The data set deals with the molecule itself. The data set is described as follows: native gel or EMSA; NativePAGE 3-12% Bis-Tris gel, 7.5 ug of recombinant protein per lane; oligomer profile from <480 to 1236 kDa, median size read against markers. Background: A gel shift assay detects complexes by their altered migration in electrophoresis.

B1: recombinant human αA-crystallin T148D (phosphomimetic) (natural protein, UniProt P02489 1-173, looked up)
chain: MDVTIQHPWFKRTLGPFYPSRLFDQFFGEGLFEYDLLPFLSSTISPYYRQSLFRTVLDSGISEVRSDRDKFVIFLDVKHFSPEDLTVKVQDDFVEIHGKHNERQDDHGYISREFHRRYRLPSNVDQSALSCSLSADGMLTFCGPKIQDGLDATHAERAIPVSREEKPTSAPSS
As to B1, the binding result is reported as “binds”.

B2: recombinant human αA-crystallin T148A (nonphosphorylatable) (natural protein, UniProt P02489 1-173, looked up)
chain: MDVTIQHPWFKRTLGPFYPSRLFDQFFGEGLFEYDLLPFLSSTISPYYRQSLFRTVLDSGISEVRSDRDKFVIFLDVKHFSPEDLTVKVQDDFVEIHGKHNERQDDHGYISREFHRRYRLPSNVDQSALSCSLSADGMLTFCGPKIQAGLDATHAERAIPVSREEKPTSAPSS
Turning to B2, the binding result is given as “binds”.

The values are drawn from paper PMC8906792 (eNeuro, 2022).
